Assay results published in US20260232759A1, “PEPTIDES THAT INHIBIT INFECTION BY SARS-COV-2, THE VIRUS THAT CAUSES COVID-19 DISEASE” (Wisconsin Alumni Research Foundation, priority 2021, published 2026).
No end group written: not given here.

Each binder was assayed against SARS-CoV-2 Spike protein (SARS-CoV-2), P0DTC2 (assay: cell-based or functional assay).

Binder | inhibition of S-mediated cell-cell fusion (β-Gal complementation), IC50
DISQINASVVNIEYEIXKLEEVAXKLEESLIDLQELGSGSGC (not fully specified (C-terminus); also: α/β-peptide, β-residue positions not given here) [α/β-SARS2 HRC QE-15] | 50 nM
DISQINASVVNIEYEIXKLEEVAXKLEESLIDLQELGSGSGC (not fully specified (C-terminus); also: α/β-peptide, β-residue positions not given here) [α/β-SARS2 HRC QE-17] | 10 nM
DISQINASVVNIEYEIXKLEEVAXKLEESLIDLQELGSGSGC (not fully specified (C-terminus); also: α/β-peptide, β-residue positions not given here, alias: peg4 chol conjugate) [α/β-SARS2 HRC QE-7] | 10 nM

Target: SARS-CoV-2 Spike protein (SARS-CoV-2), P0DTC2
Experiment: cell-based or functional assay
Remark: another data set of the same source

Binder | inhibition of S-mediated cell-cell fusion (β-Gal complementation), IC50 | inhibition of S-mediated cell-cell fusion (β-Gal complementation), IC90
DISQINASVVNIEYEIXKLEEVAKKLEESLIDLQELGSGSGC (not fully specified (C-terminus); also: α/β-peptide, β-residue positions not given here, alias: peg4 chol conjugate) [α/β-SARS2 HRC QE-5] | 1000 nM | –
DISQINASVVNIEYEIKKLEEVAXKLEESLIDLQELGSGSGC (not fully specified (C-terminus); also: α/β-peptide, β-residue positions not given here, alias: peg4 chol conjugate) [α/β-SARS2 HRC QE-6] | 20 nM | 100 nM
DISQINASVVNIEYEIXKLEEVAXKLEESLIDLQELGSGSGC (not fully specified (C-terminus); also: α/β-peptide, β-residue positions not given here, alias: peg4 chol conjugate) [α/β-SARS2 HRC QE-8] | 100 nM | –
DISQINASVVNIEYEIXKLEEVAXKLEESLIDLQELGSGSGC (not fully specified (C-terminus); also: α/β-peptide, β-residue positions not given here, alias: peg4 chol conjugate) [α/β-SARS2 HRC QE-7] | 20 nM | 100 nM
